# Source: the Human Domainome abundance scans (Beltran et al. 2025)
# ± gives the uncertainty stated by the source.
# B1: POU domain, class 2, transcription factor 2, residues 200 to 269; numbered along this chain, P09086 (parent)
# chain: LEELEQFARTFKQRRIKLGFTQGDVGLAMGKLYGNDFSQTTISRFEALNLSFKNMCKLKPLLEKWLNDAE
# Variants of: B1
# Experiment: abundance fitness (aPCA) (normalised: wild type 0, dead -1); higher = more abundant; growth selection in yeast, the domain comes from the species named
# Conditions: Homo sapiens
row,Variant,abundance fitness
1,G26C,-0.105 ± 0.065
2,G26R,-0.165 ± 0.035
3,I42G,-1.02 ± 0.12
4,I42Q,-0.559 ± 0.11
5,I42W,-0.818 ± 0.16
6,I42H,-1.01 ± 0.32
7,G30K,-0.071 ± 0.078
8,G30L,-0.044 ± 0.049
9,G30T,0.009 ± 0.074
10,G30V,-0.052 ± 0.035
11,G30I,-0.083 ± 0.07
12,G30D,-0.068 ± 0.028
13,N35I,-0.15 ± 0.08
14,N35S,-0.078 ± 0.04
15,N35Y,0 ± 0.071
16,N35W,-0.026 ± 0.058
17,N35R,-0.022 ± 0.04
18,N35P,-0.017 ± 0.034
19,N35D,-0.095 ± 0.069
20,Q22M,-0.054 ± 0.05
21,Q22H,-0.062 ± 0.11
22,Q22I,-0.12 ± 0.16
23,Q22F,-0.097 ± 0.1
24,R14P,-1.23 ± 0.34

row,Variant,abundance fitness
1,R14D,-0.327 ± 0.11
2,R14Y,-0.149 ± 0.066
3,R14G,-0.021 ± 0.033
4,R14Q,-0.084 ± 0.069
5,R14E,-0.138 ± 0.062
6,M29Y,-0.611 ± 0.14
7,M29F,-0.146 ± 0.07
8,M29T,-0.075 ± 0.05
9,M29E,-0.976 ± 0.19
10,V25Q,-1.03 ± 0.1
11,V25H,-0.996 ± 0.41
12,V25T,-0.302 ± 0.046
13,V25E,-0.926 ± 0.088
14,E2R,-0.066 ± 0.13
15,E2A,-0.14 ± 0.092
16,E2N,0.259 ± 0.3
17,E2W,0.039 ± 0.11
18,E2Y,-0.106 ± 0.24
19,E2D,0.054 ± 0.097
20,E2Q,-0.171 ± 0.17
21,E2C,-0.699 ± 0.28
22,E2G,-0.046 ± 0.086
23,S38A,-0.014 ± 0.053
24,S38Y,-0.234 ± 0.12

row,Variant,abundance fitness
1,S38T,-0.004 ± 0.05
2,S38W,-0.157 ± 0.04
3,S38G,0.025 ± 0.034
4,S38D,0.241 ± 0.28
5,S38V,-0.081 ± 0.041
6,F7D,-0.595 ± 0.078
7,F7Y,-0.192 ± 0.075
8,F7R,-0.96 ± 0.072
9,L61T,0.008 ± 0.04
10,L61S,-0.038 ± 0.04
11,L61R,-0.038 ± 0.031
12,L61V,-0.064 ± 0.032
13,L61A,-0.043 ± 0.041
14,P60K,-0.295 ± 0.13
15,P60E,-0.109 ± 0.048
16,P60N,-0.177 ± 0.1
17,P60V,-0.035 ± 0.036
18,E5P,-0.5 ± 0.089
19,E5H,0.074 ± 0.2
20,E5G,-0.034 ± 0.037
21,E5Q,-0.057 ± 0.071
22,K17C,0.011 ± 0.073
23,K17A,-0.049 ± 0.039
24,K17N,0.02 ± 0.081

row,Variant,abundance fitness
1,K17G,-0.027 ± 0.035
2,Q39C,-0.077 ± 0.061
3,Q39D,0.017 ± 0.082
4,Q39F,-0.022 ± 0.08
5,Q39M,-0.024 ± 0.064
6,Q39H,-0.11 ± 0.088
7,Q39G,-0.027 ± 0.031
8,Q39K,-0.029 ± 0.056
9,Q39E,0.01 ± 0.037
10,W65K,-0.716 ± 0.16
11,W65C,-0.243 ± 0.06
12,A8P,-0.506 ± 0.11
13,L1T,0.016 ± 0.18
14,L1R,-0.169 ± 0.086
15,R15P,-1.16 ± 0.14
16,R15I,-0.85 ± 0.19
17,R15N,-0.799 ± 0.13
18,G19V,-0.986 ± 0.087
19,G19I,-0.793 ± 0.34
20,G19E,-0.301 ± 0.057
21,K31L,-0.092 ± 0.041
22,K31V,-0.115 ± 0.049
23,K31T,-0.036 ± 0.072
24,K31W,-0.246 ± 0.061

row,Variant,abundance fitness
1,K31E,-0.064 ± 0.055
2,F11C,-0.143 ± 0.089
3,F11D,-0.565 ± 0.096
4,F11E,-0.977 ± 0.15
5,F11R,-1.01 ± 0.088
6,Q13S,-0.006 ± 0.028
7,Q13M,-0.023 ± 0.04
8,Q13F,-0.032 ± 0.089
9,Q13L,-0.033 ± 0.031
10,Q13D,-0.04 ± 0.1
11,Q13W,-0.172 ± 0.038
12,Q13P,-0.293 ± 0.027
13,K59W,-0.078 ± 0.054
14,K59Q,-0.094 ± 0.076
15,K59I,0.001 ± 0.13
16,K59T,-0.167 ± 0.049
17,K59H,-0.098 ± 0.14
18,T21V,-0.573 ± 0.052
19,T21G,-0.135 ± 0.032
20,T21C,-0.212 ± 0.065
21,T21E,-0.165 ± 0.043
22,K53L,-0.015 ± 0.042
23,K53A,0.004 ± 0.047
24,K53W,-0.079 ± 0.058

row,Variant,abundance fitness
1,K53V,-0.014 ± 0.035
2,K53H,0.016 ± 0.071
3,I16P,-0.895 ± 0.12
4,I16V,-0.039 ± 0.036
5,I16N,-0.003 ± 0.08
6,I16C,-0.149 ± 0.057
7,I16Q,-0.013 ± 0.061
8,F37K,-0.434 ± 0.065
9,F37H,-0.093 ± 0.13
10,F37C,-0.06 ± 0.065
11,F37M,-0.024 ± 0.076
12,F37Y,-0.048 ± 0.092
13,D36M,-0.162 ± 0.07
14,D36I,-0.057 ± 0.08
15,D36N,-0.063 ± 0.061
16,D36C,-0.12 ± 0.05
17,D36E,-0.026 ± 0.059
18,D36P,-0.122 ± 0.053
19,A69F,-0.179 ± 0.085
20,A69I,0.012 ± 0.11
21,A69E,0.009 ± 0.069
22,A69V,-0.084 ± 0.057
23,A69L,-0.034 ± 0.062
24,R44P,-0.936 ± 0.12

row,Variant,abundance fitness
1,R44F,-0.22 ± 0.067
2,R44I,-0.926 ± 0.36
3,R44Y,-0.033 ± 0.093
4,R44D,-0.06 ± 0.095
5,R44C,-0.057 ± 0.069
6,R44N,-0.482 ± 0.32
7,L27M,-0.033 ± 0.041
8,L27V,0.015 ± 0.038
9,L27E,-0.059 ± 0.047
10,L27G,-0.049 ± 0.031
11,L27N,-0.019 ± 0.21
12,L27I,-0.069 ± 0.081
13,L27H,-0.043 ± 0.13
14,L27W,-0.105 ± 0.04
15,G23E,-0.04 ± 0.05
16,G23P,-0.136 ± 0.061
17,G23I,-0.004 ± 0.22
18,G23V,-0.029 ± 0.036
19,Q6H,-0.236 ± 0.1
20,Q6K,0.079 ± 0.055
21,Q6R,-0.019 ± 0.034
22,Q6F,-0.086 ± 0.15
23,R9K,-0.011 ± 0.014
